Assay results from publication PMC7311918.

Key:
Experiment in all cases: SEC-MALS
[1] = target: HCoV-229E S 2P trimer (S ectodomain, residues 17-1113) (HCoV-229E) (UniProt P15423)
[2] = target: HCoV-NL63 S 2P trimer (S ectodomain, residues 16-1291) (HCoV-NL63) (UniProt Q6Q1S2)
[3] = target: HCoV-OC43 S 2P trimer (S ectodomain, residues 15-1263) (HCoV-OC43)

HCoV-229E S 2P trimer (S ectodomain, residues 17-1113) (from UniProt P15423 17-1113) (natural protein)
stoichiometry N [1]: 3

HCoV-NL63 S 2P trimer (S ectodomain, residues 16-1291) (from UniProt Q6Q1S2 16-1291) (natural protein)
stoichiometry N [2]: 3

HCoV-OC43 S 2P trimer (S ectodomain, residues 15-1263) (natural protein)
stoichiometry N [3]: 3
